Measurements as given in the Immune Epitope Database (IEDB).

Key:
[1] = target: HLA-A*23:01; assay: IEDB peptide-MHC binding, purified MHC/competitive/radioactivity; filed as Kd, often an IC50 or EC50 that approximates it; ≥ and ≤ were set here for values at or beyond the usual limits of such assays
[2] = target: HLA-A*01:01; assay: as above
[3] = target: HLA-A*24:02; assay: as above
[4] = target: HLA-A*29:02; assay: as above; settings: source organism: Mammarenavirus whitewaterense
[5] = target: HLA-A*02:06; assay: as above
[6] = target: HLA-A*26:01; assay: as above
[7] = target: HLA-A*03:01; assay: IEDB peptide-MHC binding, purified MHC/direct/fluorescence; filed as Kd, often an IC50 or EC50 that approximates it; ≥ and ≤ were set here for values at or beyond the usual limits of such assays
[8] = target: HLA-A*11:01; assay: as above; settings: source organism: Bacillus licheniformis
[9] = target: HLA-B*15:01; assay: as above; settings: source organism: Bacillus licheniformis
[10] = target: HLA-B*58:01; assay: as above; settings: source organism: Mycobacterium tuberculosis variant bovis
[11] = target: HLA-A*30:02; assay: IEDB peptide-MHC binding, purified MHC/competitive/radioactivity; filed as Kd, often an IC50 or EC50 that approximates it; ≥ and ≤ were set here for values at or beyond the usual limits of such assays
[12] = target: HLA-B*44:02; assay: as above
[13] = target: HLA-B*44:03; assay: as above; settings: source organism: Dengue virus 3 Sri Lanka/1266/2000
[14] = target: HLA-A*02:02; assay: as above
[15] = target: HLA-A*02:03; assay: as above
[16] = source organism: Dengue virus 4 Philippines/H241/1956
[17] = source organism: Dengue virus 3 Martinique/1243/1999
[18] = source organism: Mammarenavirus whitewaterense
[19] = source organism: Dengue virus 2 Jamaica/1409/1983
[20] = source organism: Lassa virus Josiah
[21] = source organism: Dengue virus 3 Sri Lanka/1266/2000
[22] = source organism: Dengue virus 1 Nauru/West Pac/1974
[23] = source organism: Dengue virus 4 Dominica/814669/1981
[24] = source organism: SARS coronavirus Tor2
[25] = source organism: Vaccinia virus WR

Question: How did the Kd [1, 16] turn out when PWLSSKPEF was run?
Answer: Its Kd is 116 nM.

Question: Which Kd [2, 17] does the source give for LTLTAAVLLL here?
Answer: The Kd was 13900 nM.

Question: For PYVPMPCMI, which Kd [1, 18] is on record?
Answer: The Kd was 41.7 nM.

Question: And the Kd [3, 18]?
Answer: The Kd was 57.4 nM.

Question: What about the Kd [4] of the same sequence?
Answer: The Kd was no less than 60.7 µM.

Question: How did the Kd [2, 16] turn out when FTDPSSVAA was run?
Answer: Its Kd is 1.71 nM.

Question: What about the Kd [5, 16] of the same sequence?
Answer: The Kd was 59.4 nM.

Question: For EISSMLNIM, which Kd ([6]; source organism: Dengue virus 1 Brazil/97-11/1997) is on record?
Answer: Its Kd is 657 nM.

Question: For ENPYRTWAYH, which Kd [6, 16] is on record?
Answer: The Kd was no less than 69700 nM.

Question: With HFFMKHPNK as the sequence, how does the Kd ([7]; source organism: Coxiella burnetii) read?
Answer: Its Kd is 0.218 µM.

Question: With NYADRRWCF as the sequence, how does the Kd [1, 19] read?
Answer: The Kd was 50.6 nM.

Question: And the Kd [3, 19]?
Answer: Its Kd is 12.2 nM.

Question: With RYPLTFGWCF as the sequence, how does the Kd ([3]; source organism: HIV-1 M:B_ARV2/SF2) read?
Answer: Its Kd is 17 nM.

Question: GVGAPTTTY was tested. Which Kd ([7]; source organism: Bacillus licheniformis) did it give?
Answer: The Kd was 7.45 µM.

Question: What about the Kd [8] of the same sequence?
Answer: Its Kd is 10.1 µM.

Question: What about the Kd [9] of the same sequence?
Answer: Its Kd is 120 nM.

Question: For RDTAEAAKW, which Kd [10] is on record?
Answer: Its Kd is 1590 nM.

Question: For VLVGVVTLY, which Kd [6, 19] is on record?
Answer: The Kd was 13600 nM.

Question: And the Kd [11, 19]?
Answer: Its Kd is 58.3 nM.

Question: TWAKNIHTAI was tested. Which Kd [3, 16] did it give?
Answer: Its Kd is 2000 nM.

Question: Which Kd ([2]; source organism: Homo sapiens) does the source give for PFDTRQMLFY here?
Answer: Its Kd is 252 nM.

Question: How did the Kd [12, 17] turn out when NEEKITQQM was run?
Answer: The Kd was 578 nM.

Question: For HYLCLNCLT, which Kd [2, 20] is on record?
Answer: The Kd was 6910 nM.

Question: What about the Kd [6, 20] of the same sequence?
Answer: Its Kd is no less than 77900 nM.

Question: And the Kd [11, 20]?
Answer: The Kd was 3020 nM.

Question: Which Kd [12, 17] does the source give for AEITPQAST here?
Answer: The Kd was 16.5 nM.

Question: How did the Kd [6, 21] turn out when NTIFTLTVAW was run?
Answer: Its Kd is 8780 nM.

Question: And the Kd [12, 21]?
Answer: Its Kd is 7260 nM.

Question: And the Kd [13]?
Answer: Its Kd is no less than 23.1 µM.

Question: For EAEPPFGESY, which Kd [2, 22] is on record?
Answer: The Kd was 1360 nM.

Question: And the Kd [6, 22]?
Answer: Its Kd is 669 nM.

Question: How did the Kd [2, 17] turn out when TTEAILPEY was run?
Answer: The Kd was 30.6 nM.

Question: What about the Kd [6, 17] of the same sequence?
Answer: The Kd was 1180 nM.

Question: And the Kd [11, 17]?
Answer: The Kd was no less than 54300 nM.

Question: With MSPGYVLGVF as the sequence, how does the Kd [1, 23] read?
Answer: The Kd was 1000 nM.

Question: What about the Kd [3, 23] of the same sequence?
Answer: The Kd was 1480 nM.

Question: And the Kd [6, 23]?
Answer: Its Kd is 1600 nM.

Question: Which Kd [11, 23] does the source give for IGKMFESTY here?
Answer: The Kd was 338 nM.

Question: ESEMIIPKNF was tested. Which Kd [2, 19] did it give?
Answer: Its Kd is no less than 70400 nM.

Question: What about the Kd [6, 19] of the same sequence?
Answer: Its Kd is no less than 69700 nM.

Question: With IKYTDRKWCF as the sequence, how does the Kd [3, 17] read?
Answer: The Kd was 2370 nM.

Question: How did the Kd [3, 19] turn out when IYGAAFSGV was run?
Answer: The Kd was 398 nM.

Question: For FLVLIMLII, which Kd [14, 24] is on record?
Answer: Its Kd is 1630 nM.

Question: And the Kd [15, 24]?
Answer: The Kd was 9.73 µM.

Question: What about the Kd [5, 24] of the same sequence?
Answer: Its Kd is 1350 nM.

Question: RLQMAGVEV was tested. Which Kd [14, 25] did it give?
Answer: The Kd was 326 nM.

Question: What about the Kd [15, 25] of the same sequence?
Answer: Its Kd is 0.531 µM.

Question: And the Kd [5, 25]?
Answer: The Kd was 4110 nM.
